This note sets out measurements from article doi:10.1101/2021.03.09.434581.

Experiment [1] deals with Vibrio cholerae ParD2 N-terminal domain as found in the crystal (Vibrio cholerae). Briefly: crystal structure.
In experiment [2] the target is Vibrio cholerae ParD2 antitoxin, full length (Vibrio cholerae). Briefly: SEC-MALS. A general note: Size exclusion chromatography separates by hydrodynamic size, large species first.
For experiment [3] the target is unchanged. Briefly: SEC-SAXS.

In general, stoichiometry N refers to a count of units in the complex or per binding partner.

Several values for one entry are separate records, joined by “and”; a condition that tells them apart may be missing. Equal entries are not always repeated.

In experiment [1], “Vibrio cholerae ParD2 N-terminal domain as found in the crystal (domain or fragment)” gave a stoichiometry N of 16.

Take “Vibrio cholerae ParD2 antitoxin, full length (natural protein)”: the stoichiometry N in experiment [2] was 10 and 12 and 8; in experiment [3] it was 12.
